# Experimental data taken from IntAct's records for PubMed 20956942.
# B1: Thyroid hormone receptor beta (Homo sapiens), P10828-1 (parent)
# chain: MTPNSMTENGLTAWDKPKHCPDREHDWKLVGMSEACLHRKSHSERRSTLKNEQSSPHLIQTTWTSSIFHLDHDDVNDQSVSSAQTFQTEEKKCKGYIPSYLDKDELCVVCGDKATGYHYRCITCEGCKGFFRRTIQKNLHPSYSCKYEGKCVIDKVTRNQCQECRFKKCIYVGMATDLVLDDSKRLAKRKLIEENREKRRREELQKSIGHKPEPTDEEWELIKTVTEAHVATNAQGSHWKQKRKFLPEDIGQAPIVNAPEGGKVDLEAFSHFTKIITPAITRVVDFAKKLPMFCELPCEDQIILLKGCCMEIMSLRAAVRYDPESETLTLNGEMAVTRGQLKNGGLGVVSDAIFDLGMSLSSFNLDDTEVALLQAVLLMSSDRPGLACVERIEKYQDSFLLAFEHYINYRKHHVTHFWPKLLMKVTDLRMIGACHASRFLHMKVECPTELFPPLFLEVFED
# Variants of: B1
# Details: with ncoa3_human NCOA3, Q9Y6Q9
row,effect of a mutation on the interaction,Variant
1,increasing interaction,P214R
2,decreasing interaction,E457Q
3,disrupting interaction,K288I
4,increasing interaction,R243W

# Variants of: B1
# Details: with ncor2_human NCOR2, Q9Y618
row,effect of a mutation on the interaction,Variant
1,decreasing interaction,P214R
2,decreasing interaction,A228G;H229G;T232A
3,increasing interaction,R243W
